Data from patent publication US12358963B2, “Regenerative polypeptides and uses thereof” (Juvena Therapeutics, Inc., priority 2019, dated 2025).

Key:
mouse myoblast cells = assay: Mouse myoblast proliferation assay (EdU); format: cell-based; conditions: for % EdU / Ave. + EdU Count: 48h; for % EdU: vehicle 3.14; for Ave. + EdU Count: FM 165
Description: FIG. 5A) Bar graph quantitation of % EdU+ mouse myoblast in response to BMP7. Myoblast were cultured 48h in the presence of BMP7 at indicated dose. Fresh media and BMP7 was added every 24h, followed by 2 hour EdU pulse and fixation. Mean∓S.D. Significant p-values (Vehicle˜BMP7 0.025 ug/mL: 1.21E-07, Vehicle˜BMP7 0.075 ug/mL: 8.05E-07, Vehicle˜BMP7 0.2255 ug/mL: 3.37E-03, Vehicle˜BMP7 0.9 ug/mL: 4.99E-02). FIG. 5B) Bar graph quantitation of % EdU+ human myoblast (person) in response to BMP7. Myoblast were cultured 72h in the presence of BMP7 at indicated dose. Cells were pulsed with EdU for 4 hours before fixation. Mean∓S.D. Significant p-values (Vehicle˜BMP7 1.56 ng/mL: 0.04). (*p<0.05 by Welch's One-Tailed T-test, n=2)
FIG. 6A) Bar graph of % EdU+ mouse myoblast cells compared to vehicle. Mouse myoblast were cultured 48h in the presence of indicated factors, followed by a 2 hour EdU pulse prior to fixation. Mean∓S.D. Significant p-values (FM˜BMP7: 0.008 ug/mL: 3.17E-02, FM˜Leucine: 300 uM BMP7: 0.008 ug/mL: 2.77E-03, FM˜Leucine: 100 uM BMP7: 0.008 ug/mL: 3.72E-05, FM˜Leucine: 900 uM BMP7: 0.008 ug/mL: 2.52E-03). (*p<0.05 by One-Way ANOVA Tukey Honest Significant Difference, n=2-6)
FIG. 7A: Bar graph of % EdU+ mouse myoblast cells compared to vehicle. Mouse myoblast were cultured 48h in the presence of indicated factors. EdU pulse and fixation. Mean∓S.D. (*p<0.05 by Student's One-Tailed T-Test of increased activity, n=2-6)
FIG. 10A) The suspension CHO cells were transiently transfected with either the empty control plasmid or the FGF17-hFcm encoding plasmid. After four days, the culture supernatants were collected and added into the culture of mouse myoblast cells for 48 hours, followed by a 2 hour EdU pulse prior to fixation. […] FIG. 10B) The suspension CHO cells were transiently transfected with the FGF17-hFcm encoding plasmid. After four days, the culture supernatants were collected and FGF17-hFcm was affinity-purified by Protein A membrane column. The purified FGF17-hFcm was added into the culture of mouse myoblast cells for 48 hours, followed by a 2 hour EdU pulse and fixation.
FIG. 11A: SDS-PAGE of culture supernatants from CHO cells transiently transfected with FGF17-hFcm or its mutants encoding plasmids (FGF17d181-216-hFcm, FGF17d204-216-hFcm, FGF17R204QK207Q-hFcm). The expressed FGF17-hFcm proteins and the mutant proteins were indicated by the white arrowheads. FIG. 11B) The culture supernatants from CHO cells transiently transfected with different FGF17 encoding plasmids were added into the culture of mouse myoblast cells for 48 hours followed by 2 hour EdU pulse and fixation.
FIG. 12A) SDS-PAGE of culture supernatants from CHO cells transiently transfected with FGF17-hFcm or its mutants encoding plasmids (FGF17d197-216-hFcm, FGF17K191AK193AS200A-hFcm). The expressed FGF17-hFcm proteins and the mutant proteins were indicated by the white arrowheads. FIG. 12B) The culture supernatants from CHO cells transiently transfected with different FGF17 encoding plasmids were added into the culture of mouse myoblast cells for 48 hours, followed by 2 hour EdU pulse and fixation.
FIG. 14A: Bar graph of % EdU+ mouse myoblast cells compared to vehicle. Myoblast were cultured 48h in the presence of indicated factors. Fresh media and factors were added every 24h, followed by 2 hour EdU pulse and fixation. Mean∓S.D. Table quantitation of % EdU and p-values (*p<0.05 by One-Way ANOVA Tukey Honest Significant Difference, n=2-6)
FIG. 15A: Bar graph of % EdU+ mouse myoblast cells compared to vehicle. Myoblast were cultured 48h in the presence of indicated factors. Fresh media and factors were added every 24h, followed by 2 hour EdU pulse and fixation. Mean∓S.D. Table quantitation of % EdU and p-values shown. (*p<0.05 by Student's One-Tailed T-Test of increased activity, n=2-6)
Bar graph of total EdU+ mouse myoblast cells compared per condition. Myoblast were cultured 48h in the presence of indicated factors. […]

human chondrocyte = assay: Human chondrocyte proliferation (% EdU+); format: cell-based; conditions: 48h, vehicle 0.744
Description: Chondrocytes were cultured for 48h in the presence of FGF17 at indicated dose. FGF18 was added at 0.1 ug/mL as a positive control. Fresh media and FGF17 was added every 24h. Table of % EdU+ chondrocyte and p-values depicted. Mean∓S.D. (*p<0.05 by Tukey Honest Significant Difference T-test, n=2-3)

78 weeks old mice = assay: BaCl2 muscle injury in old mice, intramuscular FGF17; format: in vivo, mouse; conditions: FGF17 500 ng/mL intramuscular 2h and 48h after BaCl2 injury
Description: FIG. 16A) Experiment overview. Intramuscular injection of 1.2% of BaCl2 (7 ul/TA) was used to generate chemical injury in the TAs of 78 weeks old mice. FGF17 (500 ng/mL) was administered via intramuscular injection after 2h and 48h of muscle injury. FIG. 16B) Quantification of the regenerative index calculated as the number of newly regenerated fibers per mm 2 of injury area. Regenerated fibers were identified as fibers with central nuclei,****p<0.0001 (unpaired t-test). FIG. 16C) Histogram showing the fibrotic index calculated as the percentage of the fibrotic area. *p=0.0186 (unpaired t-test).

B1: FGF17: FGF17 polypeptide, FGFR agonist (protein, listed as Homo sapiens)
chain: TQGENHPSPNFNQYVRDQGAMTDQLSRRQIREYQLYSRTSGKHVQVTGRRISATAEDGNKFAKLIVETDTFGSRVRIKGAESEKYICMNKRGKLIGKPSGKSKDCVFTEIVLENNYTAFQNARHEGWFMAFTRQGRPRQASRSRQNQREAHFIKRLYQGQLPFPNHAEKQKQFEFVGSAPTRRTKRTRRPQPLT
Mouse myoblast cells; FGF17 0.0062 ug/mL
  % EdU: 4.81%
Mouse myoblast cells; FGF17 0.01 ug/mL
  Ave. + EdU Count: 476
Mouse myoblast cells; FGF17 0.0125 ug/mL
  % EdU: 3.02%
Mouse myoblast cells; FGF17 0.025 ug/mL, 48h (HA experiment), FM 11.162
  % Edu: 17.870%
Mouse myoblast cells; FGF17 0.025 ug/mL
  % EdU: 3.85%
Mouse myoblast cells; FGF17 0.1 ug/mL
  Ave. + EdU Count: 1618
Human chondrocyte; 0.1 ug/mL
  % EdU: 4.675%
Human chondrocyte; 0.20 ug/mL
  % EdU: 9.085%
Human chondrocyte; 0.40 ug/mL
  % EdU: 16.773%
78 weeks old mice
  Fibrotic index: reducing fibrosis
  Muscle regeneration (regenerative index): Promoted the Regeneration of Muscle
